Results reported in patent US20080032921A1.

What was measured:
[1] = target: purified HLA DRB1*1501 (human); test: competition with 125I-labelled reference peptide, purified HLA
[2] = target: purified HLA DRB1*0301 (human); test: as above
[3] = target: purified HLA DRB5*0101 (human); test: as above
[4] = target: purified HLA DRB1*0404 (human); test: as above
[5] = target: purified HLA DRB1*1101 (human); test: as above
[6] = target: purified HLA DRB1*1302 (human); test: as above
[7] = target: purified HLA DRB1*0401 (human); test: as above
[8] = target: purified HLA DRB1*0701 (human); test: as above
[9] = target: purified HLA DRB4*0101 (human); test: as above
[10] = target: purified HLA DRB1*0101 (human); test: as above
[11] = target: purified HLA DRB1*0405 (human); test: as above
HLA-DR DRB1*0101 (human) [12] = test: competition with 125I-labeled reference peptide, purified HLA
HLA-DR DRB1*0701 (human) [13] = test: as above
HLA-DR DRB5*0101 (human) [14] = test: as above
HLA-DR DRB1*0802 (human) [15] = test: as above
HLA-DR DRB1*0301 (human) [16] = test: as above
HLA-DR DRB1*0401 (human) [17] = test: as above
HLA-DR DRB1*0404 (human) [18] = test: as above
HLA-DR DRB1*0405 (human) [19] = test: as above
HLA-DR DRB4*0101 (human) [20] = test: as above
HLA-DR DRB1*1302 (human) [21] = test: as above
HLA-DR DRB1*1101 (human) [22] = test: as above
HLA-DR DRB1*1501 (human) [23] = test: as above
HLA-DR DRB1*0101 (human) [24] = test: competition with 125I-labelled peptide for purified HLA-DR
HLA-DR DRB1*0701 (human) [25] = test: as above
HLA-DR DRB5*0101 (human) [26] = test: as above
HLA-DR DRB1*0901 (human) = test: as above
HLA-DR DRB1*0802 (human) [27] = test: as above
HLA-DR DRB1*0301 (human) [28] = test: as above
HLA-DR DRB1*0401 (human) [29] = test: as above
HLA-DR DRB1*0404 (human) [30] = test: as above
HLA-DR DRB1*0405 (human) [31] = test: as above
HLA-DR DRB4*0101 (human) [32] = test: as above
HLA-DR DRB1*1302 (human) [33] = test: as above
HLA-DR DRB1*1101 (human) [34] = test: as above
HLA-DR DRB1*1501 (human) [35] = test: as above

Binder: AKSMEYDAVATTHSW (modifications not checked) [Flu.PB1.655]
- IC50 [1]: 1.99 µM
- IC50 [2]: 0.909 µM
- IC50 [3]: 3.53 µM
- IC50 [4]: 0.646 µM
- IC50 [5]: 6.62 µM
- IC50 [6]: 2.18 µM
- IC50 [7]: 0.053 µM
- IC50 [8]: 0.292 µM
- IC50 [9]: 6.34 µM
- IC50 [10]: 0.202 µM
- IC50 [11]: 0.626 µM

Binder: RREVHIYYLEKANKI (modifications not checked) [Flu.PA.127]
- IC50 (HLA-DR DRB1*0101 (human) [12]): 0.034 µM
- IC50 (HLA-DR DRB1*0701 (human) [13]): 0.023 µM
- IC50 (HLA-DR DRB5*0101 (human) [14]): 0.025 µM
- IC50 (HLA-DR DRB1*0802 (human) [15]): 0.095 µM
- IC50 (HLA-DR DRB1*0301 (human) [16]): > 10 µM
- IC50 (HLA-DR DRB1*0401 (human) [17]): 0.063 µM
- IC50 (HLA-DR DRB1*0404 (human) [18]): 0.181 µM
- IC50 (HLA-DR DRB1*0405 (human) [19]): 1.49 µM
- IC50 (HLA-DR DRB4*0101 (human) [20]): 0.005 µM
- IC50 (HLA-DR DRB1*1302 (human) [21]): 0.15 µM
- IC50 (HLA-DR DRB1*1101 (human) [22]): 0.096 µM
- IC50 (HLA-DR DRB1*1501 (human) [23]): 0.0045 µM
- IC50 (HLA-DR DRB1*0101 (human) [24]): 0.034 µM
- IC50 (HLA-DR DRB1*0701 (human) [25]): 0.023 µM
- IC50 (HLA-DR DRB5*0101 (human) [26]): 0.025 µM
- IC50 (HLA-DR DRB1*0901 (human)): 0.851 µM
- IC50 (HLA-DR DRB1*0802 (human) [27]): 0.095 µM
- IC50 (HLA-DR DRB1*0301 (human) [28]): > 10 µM
- IC50 (HLA-DR DRB1*0401 (human) [29]): 0.063 µM
- IC50 (HLA-DR DRB1*0404 (human) [30]): 0.181 µM
- IC50 (HLA-DR DRB1*0405 (human) [31]): 1.49 µM
- IC50 (HLA-DR DRB4*0101 (human) [32]): 0.005 µM
- IC50 (HLA-DR DRB1*1302 (human) [33]): 0.15 µM
- IC50 (HLA-DR DRB1*1101 (human) [34]): 0.096 µM
- IC50 (HLA-DR DRB1*1501 (human) [35]): 0.0045 µM
